Results from US20040048327A1 (GEORGIA TECH RESEARCH, published 2004).
Numbered stars: 1 amine (or outer) side, 2 acyl side, 3 side chain; on linkers, the order of the positions; unused ones are H or OH. Square brackets hold non-standard residues; d marks the D form. Ends that are not written are not given here. * marks the point of attachment. AAsn = aza-asparagine, NC(=O)CN(N[*:1])C(=O)[*:2]; AAsp = aza-Asp, O=C(N(CC(=O)[*:3])N[*:1])[*:2]; azaAsp = O=C(N(CC(=O)[*:3])N[*:1])[*:2]; PhPr = N-terminal cap as named (PhPr); trans‑EP‑CH2CH2Ph = not defined here; azaAsn = NC(=O)CN(N[*:1])C(=O)[*:2]; Hydrocinnamoyl = O=C(CCc1ccccc1)*; (S,S)‑EP = not defined here; Cbz = O=C(OCc1ccccc1)*; NHBn = c1ccc(CN*)cc1

T1: caspase-3 (UniProt P42574 29-277, limits assumed)
T1 sequence (looked up): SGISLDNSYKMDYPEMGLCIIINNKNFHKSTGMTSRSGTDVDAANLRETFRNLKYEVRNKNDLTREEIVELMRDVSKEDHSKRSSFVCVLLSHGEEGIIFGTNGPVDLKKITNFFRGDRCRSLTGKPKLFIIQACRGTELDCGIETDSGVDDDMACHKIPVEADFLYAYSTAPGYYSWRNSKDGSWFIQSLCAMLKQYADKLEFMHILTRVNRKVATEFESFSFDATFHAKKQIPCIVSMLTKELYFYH

T2: autolytically stable caspase-1 variant (D381 E) (UniProt P29466 120-404, limits assumed)
T2 sequence (looked up): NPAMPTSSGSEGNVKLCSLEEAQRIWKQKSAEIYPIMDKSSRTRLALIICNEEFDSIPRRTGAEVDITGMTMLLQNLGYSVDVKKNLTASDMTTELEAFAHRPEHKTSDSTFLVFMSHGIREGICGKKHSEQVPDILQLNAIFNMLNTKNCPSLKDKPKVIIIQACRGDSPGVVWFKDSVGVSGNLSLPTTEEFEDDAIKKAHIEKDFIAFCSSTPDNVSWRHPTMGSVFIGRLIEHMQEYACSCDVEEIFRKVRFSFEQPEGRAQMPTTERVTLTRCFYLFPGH

T3: schistosome legumain SmAE (Schistosoma mansoni asparaginyl endopeptidase) (Schistosoma mansoni, UniProt P09841 32-291)
T3 sequence (looked up): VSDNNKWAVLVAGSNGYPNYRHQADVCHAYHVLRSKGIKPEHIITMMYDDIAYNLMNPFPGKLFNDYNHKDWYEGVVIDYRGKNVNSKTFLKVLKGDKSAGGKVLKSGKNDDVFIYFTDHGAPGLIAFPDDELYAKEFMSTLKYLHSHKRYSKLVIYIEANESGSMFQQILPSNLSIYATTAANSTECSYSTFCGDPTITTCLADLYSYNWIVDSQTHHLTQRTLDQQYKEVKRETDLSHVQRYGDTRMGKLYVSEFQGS


Assays:
Experiment in all cases: cell-based or functional assay
[1] = target: T1, caspase-3
[2] = target: T2, autolytically stable caspase-1 variant …
[3] = target: T3, schistosome legumain SmAE (Schistosoma …)

| Binder | k2 [1] [M⁻¹ s⁻¹] | k2 [2] [M⁻¹ s⁻¹] | IC50 [3] [nM] |
| --- | --- | --- | --- |
| Cbz-Val-[AAsp]-{(trans)‑EP‑Ph‑4‑Cl} [Cbz-Val-AAsp-(trans)-EP-Ph-4-Cl] | 145 |  |  |
| Hydrocinnamoyl-Val-Ala-[AAsp]-{trans‑EP‑CH2CH2Ph} (reading uncertain; also: printed as PhPr-Val-Ala-AAsp-trans-EP-CH2CH2Ph) [PhPr-Val-Ala-AAsp-trans-EP-CH2CH2Ph] |  | 300 |  |
| Cbz-Glu-Val-[azaAsp]-{(S,S)‑EP‑CONHCH2CH2Ph} [Cbz-Glu-Val-AAsp-(S,S)-EP-CONHCH2CH2Ph] | 27300 | 41100 |  |
| Hydrocinnamoyl-Val-Ala-[AAsp]-{(S,S)‑EP‑COOEt} [PhPr-Val-Ala-AAsp-(S,S)-EP-COOEt] | 1040 | 32200 |  |
| Cbz-IET[azaAsp]-{(R,R)‑EP‑CONHCH2Ph} [Cbz-Ile-Glu-Thr-AAsp-(R, R)-EP-CONHCH2Ph] | 6480 | 18100 |  |
| Cbz-IET[azaAsp]-{(S,S)‑EP‑COOCH2Ph} [Cbz-Ile-Glu-Thr-AAsp-(S,S)-EP-COOCH2Ph] | 9540 | 45800 |  |
| Hydrocinnamoyl-Val-Ala-[AAsp]-{(R,R)‑EP‑COOEt} [PhPr-Val-Ala-AAsp-(R,R)-EP-COOEt] |  | 6290 |  |
| Hydrocinnamoyl-Val-Ala-[AAsp]-{(R,R)‑EP‑CO-Phe-NH2} [PhPr-Val-Ala-AAsp-(R,R)-EP-CO-Phe-NH2] |  | 330 |  |
| Hydrocinnamoyl-Val-Ala-[AAsp]-{(R,R)‑EP‑CO-Ala-NHBn} [PhPr-Val-Ala-AAsp-(R,R)-EP-CO-Ala-NHCH2Ph] |  | 268 |  |
| Cbz-DEV[azaAsp]-{(S,S)‑EP‑CO-Phe-NH2} [Cbz-Asp-Glu-Val-AAsp-(S,S)-EP-CO-Phe-NH2] | 722000 | 9250 |  |
| Cbz-Val-[azaAsp]-{(S,S)‑EP‑COOEt} [Cbz-Val-AAsp-(S,S)-EP-COOEt] | 3650 |  |  |
| Hydrocinnamoyl-Val-Ala-[AAsp]-{(S,S)‑EP‑CONHCH2Ph} [PhPr-Val-Ala-AAsp-(S,S)-EP-CONHCH2Ph] | 1610 | 65900 |  |
| PhPr-Val-Ala-[AAsp]-{(S,S)‑EP‑CONHCH2CH2Ph} [PhPr-Val-Ala-AAsp-(S,S)-EP-CONHCH2CH2Ph] | 1110 | 17200 |  |
| Cbz-Glu-Val-[azaAsp]-{(2S,3S)‑EP‑COOEt} [Cbz-Glu-Val-AAsp-(2S,3S)-EP-COOEt] | 50500 | 58500 |  |
| Hydrocinnamoyl-Val-Ala-[AAsp]-{(S,S)‑EP‑COOCH2CH2Ph} [PhPr-Val-Ala-AAsp-(S,S)-EP-COOCH2CH2Ph] | 2110 | 56600 |  |
| Cbz-Glu-Val-[azaAsp]-{(R,R)‑EP‑CO-Phe-NH2} [Cbz-Glu-Val-AAsp-(R,R)-EP-CO-Phe-NH2] | 470 | 1040 |  |
| PhPr-Val-Ala-[AAsp]-{trans‑EP‑COOCH2Ph} [PhPr-Val-Ala-AAsp-trans-EP-COOCH2Ph] | 680 | 18100 |  |
| Cbz-DEVD (not fully specified (residue 4, C-terminus); printed as Cbz-Asp-Glu-Val-AAsp-(2R, 3R)-EP-COOEt) [Cbz-Asp-Glu-Val-AAsp-(2R, 3R)-EP-COOEt] | 464000 | 4320 |  |
| Hydrocinnamoyl-Val-Ala-[AAsp]-{(2R,3R)‑EP‑COOCH2Ph} [PhPr-Val-Ala-AAsp-(2R, 3R)-EP-COOCH2Ph] |  | 1860 |  |
| PhPr-Val-Ala-[AAsp]-{(S,S)‑EP‑CO-Leu-NH2} [PhPr-Val-Ala-AAsp-(S,S)-EP-CO-Leu-NH2] | 420 | 26100 |  |
| Cbz-Val-[azaAsp]-{(S,S)‑EP‑COOH} [Cbz-Val-AAsp-(S, S)-EP-COOH] | 1110 |  |  |

| Binder | k2 [1] [M⁻¹ s⁻¹] | k2 [2] [M⁻¹ s⁻¹] | IC50 [3] [nM] |
| --- | --- | --- | --- |
| Cbz-Val-[AAsp]-{(trans)‑EP‑CH2CH2Ph} [Cbz-Val-AAsp-(trans)-EP-CH2CH2Ph] | 310 |  |  |
| Hydrocinnamoyl-Val-Ala-[AAsp]-{(R,R)‑EP‑CONHCH2CH(OH)Ph} [PhPr-Val-Ala-AAsp-(R,R)-EP-CONHCH2CH(OH)Ph] |  | 400 |  |
| PhPr-Val-Ala-[AAsp]-{(S,S)‑EP‑CO-Ala-NHBn} [PhPr-Val-Ala-AAsp-(S,S)-EP-CO-Ala-NHCH2Ph] | 260 | 13400 |  |
| PhPr-Val-Ala-[AAsp]-{(S,S)‑EP‑CONHCH2CH(OH)Ph} [PhPr-Val-Ala-AAsp-(S,S)-EP-CONHCH2CH(OH)Ph] | 510 | 12300 |  |
| Hydrocinnamoyl-Val-Ala-[AAsp]-{(S,S)‑EP‑CONHCH2CH3} [PhPr-Val-Ala-AAsp-(S,S)-EP-CONHCH2CH3] | 1910 |  |  |
| Cbz-Ala-Ala-[AAsn]-{(S,S)‑EP-CON(nBu)2} (reading uncertain; also: printed as Cbz-Ala-Ala-AAsn-(S, S)-EP-CON(nBu)2) [Cbz-Ala-Ala-AAsn-(S, S)-EP-CON(nBu)2] |  |  | 68 |
| PhPr-Val-Ala-[AAsp]-{(S,S)‑EP‑CO-Phe-NH2} [PhPr-Val-Ala-AAsp-(S,S)-EP-CO-Phe-NH2] | 625 | 32700 |  |
| PhPr-Val-Ala-[AAsp]-{(2S,3S)‑EP‑COOCH2Ph} [PhPr-Val-Ala-AAsp-(2S, 3S)-EP-COOCH2Ph] | 1470 | 52100 |  |
| Cbz-Ala-Ala-[AAsn]-{(S,S)‑EP-COOCH2CH2Ph} (reading uncertain; also: printed as Cbz-Ala-Ala-AAsn-(S, S)-EP-COOCH2CH2Ph) [Cbz-Ala-Ala-AAsn-(S, S)-EP-COOCH2CH2Ph] |  |  | 45 |
| PhPr-Val-Ala-[AAsp]-{(S,S)‑EP‑CO-Tyr-NH2} [PhPr-Val-Ala-AAsp-(S,S)-EP-CO-Tyr-NH2] | 87 | 3240 |  |
| Cbz-DEVD (not fully specified (residue 4, C-terminus); printed as Cbz-Asp-Glu-Val-AAsp-(2S, 3S)-EP-COOEt) [Cbz-Asp-Glu-Val-AAsp-(2S, 3S)-EP-COOEt] | 1.07e+06 | 11800 |  |
| Cbz-IET[azaAsp]-{(R,R)‑EP‑COOCH2Ph} [Cbz-Ile-Glu-Thr-AAsp-(R, R)-EP-COOCH2Ph] | 3120 | 13000 |  |
| Cbz-DEV[azaAsp]-{(S,S)‑EP‑CONHCH2Ph} [Cbz-Asp-Glu-Val-AAsp-(S,S)-EP-CONHCH2Ph] | 1.1e+06 | 25400 |  |
| Cbz-IET[azaAsp]-{(2R,3R)‑EP‑COOEt} [Cbz-Ile-Glu-Thr-AAsp-(2R,3R)-EP-COOEt] | 2630 | 13300 |  |
| Cbz-IET[azaAsp]-{(2S,3S)‑EP‑COOEt} [Cbz-Ile-Glu-Thr-AAsp-(2S, 3S)-EP-COOEt] | 4080 | 12400 |  |
| Cbz-IET[azaAsp]-{(S,S)‑EP‑CO-Ala-NHBn} [Cbz-Ile-Glu-Thr-AAsp-(S,S)-EP-CO-Ala-NHCH2Ph] | 3050 |  |  |
| Cbz-Ala-Ala-[AAsn]-{(S,S)‑EP-COOCH2Ph} (reading uncertain; also: printed as Cbz-Ala-Ala-AAsn-(S, S)-EP-COOCH2Ph) [Cbz-Ala-Ala-AAsn-(S, S)-EP-COOCH2Ph] |  |  | 47 |
| Cbz-Ala-Ala-[azaAsn]-{(2R,3R)‑EP‑COOEt} [Cbz-Ala-Ala-AAsn-(2R, 3R)-EP-COOEt] |  |  | 788 |
| Cbz-DEV[azaAsp]-{(S,S)‑EP‑COOCH2Ph} [Cbz-Asp-Glu-Val-AAsp-(S,S)-EP-COOCH2Ph] | 1.92e+06 | 54700 |  |
| Hydrocinnamoyl-Val-Ala-[AAsp]-{(R,R)‑EP‑CONHCH2CH2Ph} [PhPr-Val-Ala-AAsp-(R,R)-EP-CONHCH2CH2Ph] |  | 950 |  |
| Hydrocinnamoyl-Val-Ala-[AAsp]-{(R,R)‑EP‑CONHCH2Ph} [PhPr-Val-Ala-AAsp-(R,R)-EP-CONHCH2Ph] |  | 1630 |  |
